Some results are limits rather than exact numbers.

Test [1] has as its target mobilized colistin resistance (MCR)-1 protein. The experiment in a line: indirect ELISA, plate coated with 0.2 ug/mL MCR-1 protein, purified antibody in doubling dilutions. To be noted: scale: reciprocal dilution. (An ELISA detects its analyte on a solid surface through an enzyme-linked reagent.)
Test [2] addresses mobilized colistin resistance (MCR)-2 protein. The experiment in a line: indirect ELISA, plate coated with 0.2 ug/mL MCR-2 protein, purified antibody in doubling dilutions. To be noted: scale: reciprocal dilution.

B1: anti-MCR-1/MCR-2 protein mouse mAb 2DG5 (antibody, V domains shown)
VH: VKLQESGPGLVKPSQSLSLTCTVTGYSITSDYAWNWIRQFPGNKLEWMGQISDSAVTTYNPSLKSRISINRDTSKNQFFLQLNSVTPEDTATYYCARRNFYGYNFFDYWGRGTSLTVSS
VL: DIQMTQTTSSLSASLGDRVTINCRASQDINNYLNWYQQKPDGTVKLLIYYTSRLHSGVPSRFSGSGSRTDYSLTISNLEREDIATYFCQQGKTIHPWTFGGGTKLDIKR
As for B1, the titer in test [1] and in test [2] was more than 1.28e+06 throughout.

B2: anti-MCR-1/MCR-2 protein mouse mAb 1IB10 (antibody, V domains shown)
VH: VKLQQSGPELVKPGASVKMSCRASGYTFTSYVMHWVKQKPGQGLEWIGYFNPYNDGANYNEKFKGKATLSSDKSSGTAYMDLSSLTSEDSAVYYCARGPYGNYAMDYWGQGTSVTVSS
VL: DVLMTQTPLSLPVSLGDQASISCRSSQNIVCSYGNPCLEWYLQKPGQSPKLLIYKVSNRFSGVPDRFSGSGSGTDFTLKISRVEAEDLGVYYCFQSSHVPWTFGGGTELEIKR
For B2, the titer in test [1] and in test [2] was more than 1.28e+06 in each case.

Source of the values: patent publication EP4265717A1.
